Tests used:
[1] = Degree of monomerization of non-boiled samples in SDS-PAGE / Western blot; type: physicochemical
Protocol: FIG. 3: Western blot analysis of cell culture supernatants from B. subtilis strains producing streptavidin muteins carrying a single mutation. 15 μl of non-boiled sample of culture supernatant was loaded to each lane. Samples on the left set were collected from B. subtilis strains cultured in super-rich medium without additional supplement of biotin. Samples on the right set were collected from B. subtilis strains cultured in super-rich medium with additional supplementation of biotin (20 μM). The blot was probed with polyclonal antibodies against streptavidin and developed using 4-chloro-1-napthol (Bio-Rad) as the colour development agent. […] M, molecular weight markers; wt, wild type streptavidin.
FIG. 4: Analysis of culture supernatants from B. subtilis strains producing streptavidin muteins carrying different combinations of mutations. All these strains were cultivated in super-rich medium supplemented with biotin (20 μM). The 15 μl of non-boiled samples of culture supernatants were loaded. FIG. 4A. Coomassie blue stained SDS-polyacrylamide gel. Bands corresponding to tetrameric and monomeric streptavidin are marked by an asterisk and an arrowhead, respectively. FIG. 4B. Western blot probed with polyclonal antibodies against streptavidin. M, molecular weight markers; wt, wild type streptavidin; AK, mutein (D61A, W 120K); M1, mutein (T76R); M2, mutein (T76R, V125R); M4, mutein (T76R, V125R, V55T, L109T); C, negative control.
Streptavidin muteins carrying a single amino-acid change at the selected site may be produced in their soluble form by B. subtilis via secretion. Analysis of non-boiled culture supernatants by SDS-PAGE offers a quick screen for the mutation effect (Qureshi, 2001). Weaker subunit interaction would result in a higher percentage of the sample in the monomeric state on the SDS-polyacrylamide gel. Since biotin can strengthen subunit interaction, samples were analyzed in the presence or absence of biotin (Laitinen, 2001; Gonzalez, 1999).
In single mutation muteins, the impact of the mutation on weakening of the subunit interaction followed the order T76R>V125R>[…]≈V55R>V55T (FIG. 3 and Table 4). The T76R mutein (referred to herein as M1) existed 100% in the monomeric state on the SDS-polyacrylamide gel even in the presence of biotin. In contrast, V55T mutation had the lowest impact, with the majority of molecules in the tetrameric state even in the absence of added biotin. Presence of biotin shifts the majority of the three remaining muteins (V125R, V125T and V55R) to the tetrameric state. Changing valine to arginine exerted greater impact than changing it to threonine. This is true for both Val-125 and Val-55.

[2] = Apparent molecular mass by gel filtration (Bio-Prep SE 100/17); type: physicochemical
Source text: FIG. 6: Gel filtration profiles of streptavidin muteins. FIG. 6A. […] Bovine gamma-globulin (158 kDa), bovine serum albumin (66 kDa), ovalbumin (44 kDa), myoglobin (17 kDa) and vitamin B-12 (1.35 kDa) were used as molecular mass markers (closed circles) to calibrate the column. The logarithm of molecular mass was plotted versus Kav (Kav=(Ve−Vo)/(Vt−Vo); Ve, elution volume; Vo, void volume; Vt, bed volume). Positions of wild-type streptavidin (wt) and streptavidin muteins are represented by solid squares. FIG. 6B. Elution profile of M4 mutein (loaded at 2 mg/ml) on the gel filtration column.
(§1) Molecular mass of purified streptavidin and its muteins was estimated by both gel filtration and dynamic light scattering studies. Gel filtration was performed on the Bio-Rad biologic workstation equipped with a Bio-Prep SE 100/17 column that had been calibrated with molecular mass protein markers (Bio-Rad). Molecular mass was also estimated from the hydrodynamic radius of the mutein obtained using a DynaPro MS dynamic light scattering instrument (Protein Solutions, USA) that had been calibrated with lysozyme. Protein samples (2-3 mg/ml in PBS) were passed through a 0.02 μm filter (Whatman Anodisc 13) immediately prior to measurement. The size distribution profile was analyzed using the manufacturer's Dynamics V6 software.

[3] = Dynamic light scattering (hydrodynamic radius, estimated molecular mass); type: physicochemical; details: for M (kDa) (Dynamic light scattering): calculated from measured RH using a protein calibration curve
Protocol: as §1

proteinase K = assay: Proteinase K digestion of streptavidin and its muteins; type: biochemical
Protocol: Purified streptavidin and its muteins (30 μM monomer) were treated with proteinase K (Invitrogen, 5 μM) for 15 min at 30° C. in 50 mM Tris-HCl containing 5 mM CaCl2, pH 8.0. The reaction was stopped by precipitation with trichloroacetic acid (Ellison, 1995). Boiled samples of precipitated proteins were resolved by reducing SDS-PAGE. The same analysis was performed with streptavidin samples treated with biotin (1 mM final concentration) prior to proteinase K digestion.

[4] = Cross-linking reactions with sulfo-EGS; type: physicochemical; details: 10-fold molar excess sulfo-EGS, 30 min, room temperature
Protocol: Cross-linking of streptavidin and its muteins was carried out using sulfo-EGS [ethylene glycolbis(sulfosuccinimidyl succinate)] (Pierce) as the cross-linker. A typical reaction mixture (20 μl) contained the purified mutein (0.2 5 mg/ml) and sulfo-EGS (10-fold molar excess over the protein) in PBS. After 30 min at room temperature, the reaction was quenched with Tris-HCl (30 mM, pH 7.5). Aliquots of the cross-linking reaction samples were boiled and examined by SDS-PAGE. Lysozyme (Sigma, 0.25 mg/ml) was included in the study to help establish the optimal reaction conditions.

[5] = tested on: Biotin-conjugated bovine serum albumin; assay: Kinetic analysis by surface plasmon resonance BIAcoreX biosensor; type: binding; details: interaction with biotin
Protocol: FIG. 8: Kinetic parameters for the interaction between M4 streptavidin mutein and biotin as monitored by BIAcore biosensor. A. On-rate (ka) determination. ka is derived from association analysis. kd is the slope of the plot of In(Ro/Rt) versus (t−to) where Ro is the response at an arbitrary starting time to; Rt is the response at time t.
The kinetic parameters (both on- and off-rates for interaction with biotin) of streptavidin muteins were determined in real time using the surface plasmon resonance based BIAcoreX biosensor. Biotin-conjugated bovine serum albumin immobilized on CM5 sensor chip was used to study the reversibility of biotin binding (Qureshi, 2001).

[6] = independent of the presence or absence of biotin, 5 μM proteinase K, 15 min, 30° C.

Substance	Monomer (percentage of streptavidin in monomeric state) ([1]; No additional biotin) [%]	Monomer (percentage of streptavidin in monomeric state) ([1]; With additional biotin (20 μM)) [%]	M (kDa) (Gel filtration) ([2]; no biotin)	RH (nm) (Dynamic light scattering) ([3]; no biotin)	M (kDa) (Dynamic light scattering) ([3]; no biotin)	Oligomeric state after cross-linking with sulfo-EGS (SDS-PAGE) [4]	further results
V55R: streptavidin mutein carrying the single mutation V55R	20	10					
Wt: wild-type streptavidin produced by B. subtilis WB800 [reference compound]			56.23	3.69 ± 0.19	69	most of these subunits were cross-linked to dimers and higher oligomers	M (kDa) (Gel filtration) ([2]; no biotin, listed as wild-type streptavidin): 56 kDa; Susceptibility to proteinase K digestion (proteinase K; [6]): converted to the core form
AK: prior art streptavidin mutein carrying double mutations D61A, W120K [reference compound]	100	100	45.66	3.20 ± 0.23	50	cross-linking profile very similar to that of the wild type streptavidin	M (kDa) (Gel filtration) ([2]; +biotin): 50.12 kDa; RH (nm) (Dynamic light scattering) ([3]; +biotin): 3.54 ± 0.38 nm; M (kDa) (Dynamic light scattering) ([3]; +biotin): 63 kDa; Susceptibility to proteinase K digestion (proteinase K; absence of biotin): most of it was digested; Susceptibility to proteinase K digestion (proteinase K; biotin present (1 mM)): much more resistant; ka, on-rate [5]: 1.46 ± 0.05 × 10^4 M^−1s^−1; kd, off-rate [5]: 3.59 ± 0.03 × 10^−3 s^−1
V55T: streptavidin mutein carrying the single mutation V55T	1	0					
M2: streptavidin double mutant carrying T76R and V125R mutations	100	100	19.95	1.98 ± 0.24	17	migrated as monomers	M (kDa) (Gel filtration) ([2]; +biotin): 23.44 kDa; RH (nm) (Dynamic light scattering) ([3]; +biotin): 2.09 ± 0.29 nm; M (kDa) (Dynamic light scattering) ([3]; +biotin): 18 kDa; Susceptibility to proteinase K digestion (proteinase K; [6]): completely digested; ka, on-rate [5]: 1.88 ± 0.07 × 10^4 M^−1s^−1; kd, off-rate [5]: 3.22 ± 0.01 × 10^−3 s^−1
V125T: streptavidin mutein carrying the single mutation V125T	25	0					
V125R: streptavidin mutein carrying the single mutation V125R	92	12					
M1: streptavidin mutein carrying the single mutation T76R	100	100					

Source: patent US20060246519A1, “MONOMERIC STREPTAVIDIN MUTEINS” (priority 2005, published 2006)
